In a protein production outcome set (Wang et al. 2014):

Assay: label from the status in PepcDB records
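Note: failed if final PepcDB status was selected cloned or expressed and not failed if soluble or beyond.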

Row | Sequence | protein production
1 | MTASDQFNSTHSAVDQYAELVLHNGRMYTLDPAQPWADAVAIRQGKLIAVGSLASLASLIGPNTRQHDLDGAFCMPGLHDMHTHPDLALAPRYADDLDVGIEDPTPEQLAAAIHAYADSHPGDGWIYGQYWVRYTFREAGLTPGREWLDSVMPHRPVALLDRMWGTMMVNSKALELAGIDRHTSDPRNGYLERDELTGEPNGLLIDGAYALIHAAMPPTPVSVLRRAYRDGVHFQTSRGVTATKYVHVCENRLQALKELDDAGELTLRVEAAISWQDDIFPVRRRWELLSGERHFYRSARLSANAVKFHFDGTVEPKSSYLLTPWPEESSWRGKLNLTPEHITDMVVDMDKRGLRVIAHCTGDGASDVFLDAVAEARRRNGNSGIRHQCAHSTLLHPGNLKRFQALDVIAEFSPAAWYPTPFASGARSGYGQERLKRIYDFKGVLAAGGIAVFGTDWPVASIDPWLALETMVTRQNPWNQEPDTFGDPISLEQALQVATLNGAHAMGLEHLTGSLEAGKSADLIVLDRDLFAQGARNYIHHTQVQLTFVEGQLVYDRQGTFSDTPLQAVWEGLPPVIEGKE | failed
2 | MELKMKTRALVIGLGSMGKRRVRNLLALGNIDVFGFDVRADRNEEASSKYQITTFDDVQKAFEDVKPEVVVISTPPQLHMTYANMCFDARVPCFIEASVTDIEEIRELGKKALEASLVIAPSCTMRYFPGPKKVKELLEQNVIGSPLSVNYQTGQYLPDWHPWEDIQDFYVSKRESGGAREIVPFELTWLNDLFSHDVKALASAVAKQTDMNADIDDIYHCLLQYDSGVLLNLTVEVISRPLATREMLILGSKGKIKFSADSNSVSYCNLETDGWVESTWEEGTVESQYINPEEPYINEMKDFVTAALAGDQSLFPNNLQDDVKVLEVLEALEEVDQLKGNKA | failed
3 | LGEICKAVLVDPSSNLTLDHWADKCGLSRRTLTRLFRRETGQSFSGWRQRVRLLEALARLGAGETVTGVALDVGYDSPSAFAAMFKRELGAAPRHYLR | failed
4 | MGDWSKLPEELLGLIALRLYSVIELIRFRSICKSWRSSASGVNKNHSLSSPLIYFKPLQIILARAQANGQILSKYHGTVLSRATFFRVTLASSPDQGWLIKSDTDLKYRNFHLLNCLSRKALGRSRKLISLSEFIVSEIQESYAVVGRRTRETASEFKRVFLVRVQGGDHRVLVIGIDGKIRFWKGGIWNGIKKQVAQFSDFVLDEGLTYAVDTKGIMWWISSAYDIIRYGTKLHENITNGSCGEKRFVRCRGELYIVDRLIDENLLKRKADSYDDNAIVHFRNADYTNADLWEDGNGNDDFFAAQAHRFIHVLHDNLGNVSCKPFERDPPKTIGFKVYKNDEELLKWVEVKSLGDKAIVIATDACFSVSAHEFYGCLPNSIYFTDKKEEEVKVFKLDDGSITTMSESEQSCFQMFVPSFL | not failed
5 | QVKSERSQKIFLEFVSANPTGPLHIGHARGAVFGDSLAKIARFLGHEVLCEYYVNDMGSQIRLLGLSVWLAYREHVLKESVTYPEVFYKGEYIIEIAKKANNDLEPSLLKENEETIIEVLSGYARDLMLLEIKDNLDALGIHFDSYASEKEVFKHKDAVFEQLEKANALYEKDSKIWLKSSLYQDESDRVLIKEDKSYTYLAGDIVYHDEKFKQDYTKYINIWGADHHGYIARVKASLEFLGYDSNKLEVLLAQMVRLLKDNEPYKMSKRAGNFILIKDVVDDVGKDALRFIFLSKRLDTHLEFDVNTLKKQDSSNPIYYIHYANSRIHTMLEKSPFSKEEVLQTP | failed
6 | GMTGFVINTRRAPFDDWRLREALLLAFNFEFINDTVTGGVMPRITSYFSGTDLAYRPGTASGREAELLAPFAADLPPGTLEGYALPQGDGTARNRTNLRRAAQFLEQAGFRIEQGQLLGPDGAPLALRFLLRQGDSDMQTVLEIYTRALERLGIAAQIEKVDNAQYTARVAELDFDLTPFRRDLSLSPGNEQRLYWGSHSAGQPGTRNLMGAASPAIDAMIDRMLAATTEDELTAATRALDRVLTAGRYVIPIWR | not failed
7 | MKGVRSMMGNLVITIGRECGSAGRLIGQKLAADLGVKCYDKELLTLAAKNSGLCEELFKTHDEKPTSSFLYSLVMDTYSLGYNTSAYMDMPINHKIFLAQFDTIKKLAEEESCVIVGRCADYALADYPNTVSVFICGDEEDKIRHLMERHNVDEAKAKDIMIKTDKRRASYYNYYSSKRWGSCKSYDMCISSSAVGYDGAVDIIKEFAKKKQEFLKTKNYK | not failed
8 | MEEPLRQESPTTFHAKTSDRGQIDLGISKHKTVAEAWEGYRQRRHRSTHLQAIETALLQQRNDRTEDEDIVLWKGKNDVYKPQFLTKETLNHMRTISMDVDWYKGVWFGHSTPKYSFCVWLAVLNRLSTGDRMTHWNGGQSAACVLCHNAPETRDHLFFSCDFASIVWSNLARGIYGDRFSTHWQDLIQAISGSWMTPLDSFFARYLFQATVHTIWRERNGRNHGEKPNSAALLIK | failed
9 | EIHHRKPHGPEAALENVDAKIAKLMGEGYAFEEVKRALEIAQNNVEVARSILREFAFPPPVSPRLNL | failed
10 | MLRHILTAKNLLSNPIFKFPNCLPFLSTVCCICRQFVGENLCSFADSPSLFEMWFHFLQLRSALNISSALRQVVHGTRWHAKRKSYKVLFWREITPLAVPIFMENACVLLMGVLSTFLVSWLGKDAMAGVGLADSFNMVIMAFFAAIDLGTTVVVAFSLGKRDRRRARVATRQSLVIMTLFAVLLATLIHHFGEQIIDFVAGDATTEVKALALTYLELTVLSYPAAAITLIGSGALRGAGNTKIPLLINGSLNILNIIISGILIYGLFSWPGLGFVGAGLGLTISRYIGAVAILWVLAIGFNPALRISLKSYFKPLNFSIIWEVMGIGIPASVESVLFTSGRLLTQMFVAGMGTSVIAGNFIAFSIAALINLPGSALGSASTIITGRRLGVGQIAQAEIQLRHVFWLSTLGLTAIAWLTAPFAGVMASFYTQDPQVKHVVVILIWLNALFMPIWSASWVLPAGFKGARDARYAMWVSMLSMWGCRVVVGYVLGIMLGWGVVGVWMGMFADWAVRAVLFYWRMVTGRWLWKYPRPEPQKCEKKPVVSE | failed
11 | MRRCPLCHSTQTHLLLQDKKRCFYICQTCWLTFADANSHLPPAAEKQRYGRSRIASKQRHLSQFILPLLTQIQQQQNGSLTGLNFGRVLDQTSLETIESAGHTFKQYDPFFAPDHETLKQEYDFICCYRVFEHFQYPIKEWSLLTRLLKPGGWLAISTPLLIDLEGFAKWHYKNNLTHVSFYQRQTFEYLASNSDFELLFAAKDLVLMQKTSLEHHHHHH | not failed
12 | MKGDRLADIRTIGVVVLYRPDSSVLDAIASYRHQVHELIVVDNSEEQDHKLHSRLRDRFGATIVGEGRNLGIAAALNRAAREALAEGFDLLLTMDQDSRAEPGMVEQMLACLGSDWRERVGLIAPFHLTGARPAPGGTTPCSDVMTPMTSGCLVNLAAFREVGPFRDDFFIDFVDNEYCLRLRKKGFQVVRANRALLHHRVGDLRRYGPFVATHHSPLRRYYKTRNRCAVFAEYLRDFPVHCLFDLVRLGKEVASILIFEREKTAKLRMMWRGFLDFRRGRFGPYGGLEHHHHHH | failed
13 | MENKPDYFHHIEHRKFQSSSKITLWLSLVITMIFTVVEFVGGIVSNSLALLSDSFHMLSDVLALGLSMVAIYFSSKPPTKNYTYGFLRLEIIVAFLNGLALIVISLGIMYEGIMRIIHPRPVESGIMILIAFIGLIANIVLTIILMISLKKENNINIQSALWHFIGDLLNSLGIIVAFVLIHFTGWNIVDPIISILISLIILRGGYKIIKNASKVLMERVPDRYDTDEIMGAMKDVEGVIDIHEFHLWSVTTNQSSLSAHVVLSDDYIKSPYATINKVSDLLKTQYGLEHVTLQIENINLNHLDEEYFKQLQE | failed
14 | MMKLLHLFMDEITMDPLHAVYLTVGLFVITFFNPGANLFVVVQTSLASGRRAGVLTGLGVALGDAFYSGLGLFGLATLITQCGEIFSLIRIVGGAYLLWFAWCSSMRRHSTPQMSTLQQPISAPWYVFFRRGLITDLSNPQTVLFFISIFSVTLHAETPTWARLMAWAGIVLASIIWRVFLSQAFSLPAVRRAYGRMQRVASWVIGAIIGVFALRLIYEGVTQR | failed
15 | MRLKDLGERALLARLAPLGYPPEAPLPPGDDAGGVWAEGRAWLLKTDGFLYREVALKGMGPFEVGFRGVAATASDLLAKMGRPLGFTLGLFLPEDLEEGFVLELVRGAAEAAKRLGAFLLGGDTNRGVEVALTVSGYALAEAPLPRKALPGDLLYLAGDRWGRTGAAIRAHYEGRSLEGFPKIREAAFYPLPRLELLALSGLLRGSLDSSDGLAETLWQLADLGVGVEVEALPLYPDVLAFAGSEEAALELVLYGGEEFEAVLVVPQEGAAAVEARAKAKGLPLFRAGRVVAGEGVYLRGAPLPRKGYAHF | not failed
16 | MGFSDAGIYLSDPNNLCQTELGFFHEPSLGFSDQSDPQNEFHITPPIYQELQDQDLEPKSQETNNCSRKEGATVKKEEEEEDDYCKTPTRSDQILSAMPRICPPAPRKPKRVPSRSLKVRNSYRSKRMIILNVSREIDCLFNPTSLCNKIKKARYI | failed
17 | MWDMKFVDRIDEAARLKDALAREKSSLVVMYGRRRLGKSTLIKRVLSENDVYFLADRSEGQHQRALLAKVIAQVFPDFEKLSYPDWESMFRAVNYRTDKRFTLCLDEFPYLVEQSPELPSVLQKLVDEKQLKYNLVLCGSSQNMMYGLFLDSTAPLYGRADEIMRLTPIRLPYIQEALNLNAMNAIEEYAIWGGVPRYWELRENRISLDDAMWHNILSVNGTLYEEPVKLFQDDVKDIVKTSTIMSYIGTGANRLSEIAARCNEPATNLSRPLKKLVDLGFLEKDVPFGIDEKNAKKSLYKIADPFMAFYYQFVVPNRSFIELGRRLPIEQALTAHFSEYVSMQWEKLCRDAVTGNLVNGVVYGKAKRWWGSVLNEDKKPEQVEFDVMAESLDKKYLLVGECKWTTGENGKQLTAELLRKANLLPFAKNYTIVPVLFLKNAPKDDAGNAMLSENVVELMK | failed
18 | MSRSVPDRWNMHKPMLCDSLPTASRTAAAILNLAQREDVTAEALAQLIQTDPALTGRILRFANAPAQGTRRPVASVIDAIDLVGLPAVRQFALSLSLIDAHREGRCEAFDYAAYWQKSLARAVALQSITAQASTVAPKEAFTLGLLADVGRLALATAWPEEYSECLRKADGEALIALERERFATDHDELTRMLLTDWGFPQVFIDALQLSQQDEIRDEGRTGRFARQLALAQHIADHRLAEEPRRAALSPLLRAEARRCGLGDEDLARLLADPPADWLDWTRTIGLPGDAPTGGAEPSRPPPQTDEKLHVLLADDDPIMLARLSRQLEADGHHVASRRDGETALAYALEHQPEMVITDWHMKPMNGLELCRALRESALGGNVYIVMLTASESEDALVEAFGAGIDDYVIKPPSVRVLKARIRAGQRIITLHKKLARERKEIERYSSELAAANRRLELMAHTDQLTGLPNRRYAMDRLEREWAQARTFDRPLSIMMLDLDWFKSINDSLGHDAGDQALVHAARVMRETVRTSDVVCRMGGEEFLIIIPDTAGPAAIQTAERVRSAVEQQQPAKLKLSRPLTASIGVADSTSAPSLKDLLLKADNALYQVKQNGRNGVRYAGLLEHHHHHH | not failed
19 | MKSAELKYLDFEDFTKLIALAKEKINPIYSSSFMIYIAAMTGMRFSELLGLTWDNVDFEKGQIYVKRTWDIYKNNFAPTKNDQSVRFLAIDSSTMQVMINYKEQQEKLLKRLEIEPEHPFVFYNIKNGLITNNSLNKQLRNMCKKLGFKKIITCHGLRHTHASTMLYKGINILYVSKRLGHSSLNVTMSVYSHILKLEHHHHHH | failed
20 | APIKGVTFGEDTVWEVQGYKNVRITFELDERVDKVLNEKCSVYTVESGTEVTEFACVVAEAVVKTLQPVSDLLTNMGIDLDEWSVATFYLFDDAGEENFSSRMYCSFYPPDE | not failed
21 | MGERIALATREGAPLAAYHAPPLEARRGGIVMLHAIWGVTPHLRQLSDSLAEQGYEVMLPSLMDAADAAFPVEDTTPSILDARMAMGERTGWGASTLPRVQACIDALNGPVYAMGFCYGGTTAWLAACRCEGLSAVSAFYGGDIAAYRDETPKVPTILHFGKTDTMIPLSAVDAVRDRHPDLPVYLYDAGHAFVAPSGHHPDSARLALLRTLQLFQR | failed
22 | MAETDPKTVQDLTSVVQTLLQQMQDKFQTMSDQIIGRIDDMSSRIDDLEKNIADLMTQAGVEELESENKIPATQKS | failed
